Data on two molecules can be found in patent US20190389956A1 (INSTITUTE OF BIOPHYSICS CHINESE ACADEMY OF SCIENCES, published 2019).

The target of test [1] is T1, human IFNAR1 truncation lacking extracellular SD1, fused with GFP, expressed on HEK293T cells (human, UniProt P17181 28-457).
T1 construct: domain: extracellular and transmembrane domains lacking SD1 (32-126); Made from pEGFP-humanIFNAR1EC by overlap PCR; transiently expressed on HEK293T cells; also called R1-Δ1; RI-Δ1; not shown: C-terminal GFP (with linker) from the pEGFP vector
T1 sequence (looked up): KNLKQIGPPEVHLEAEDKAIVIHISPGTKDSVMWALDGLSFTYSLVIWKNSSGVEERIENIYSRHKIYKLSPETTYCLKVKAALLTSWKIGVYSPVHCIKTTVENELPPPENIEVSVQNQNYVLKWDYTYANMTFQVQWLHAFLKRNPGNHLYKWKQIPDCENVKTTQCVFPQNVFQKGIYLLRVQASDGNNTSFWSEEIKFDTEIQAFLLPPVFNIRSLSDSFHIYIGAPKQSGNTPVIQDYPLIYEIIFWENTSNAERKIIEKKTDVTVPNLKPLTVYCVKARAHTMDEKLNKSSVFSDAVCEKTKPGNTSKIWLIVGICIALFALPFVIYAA
Put plainly: flow cytometry on transfected HEK293T cells, PE anti-mouse IgG. On the technique in general: In flow cytometry, cells or beads pass a laser one at a time.

Test [2] deals with T2, human IFNAR1 extracellular and transmembrane domains fused with GFP, expressed on HEK293T cells … (human, UniProt P17181 28-457).
T2 construct: domain: extracellular domains and transmembrane domains; the intracellular domain is replaced by GFP; also called R1-WT; HEK293T cells stably expressing IFNAR1; not shown: C-terminal GFP (with linker) from the pEGFP vector
T2 sequence (looked up): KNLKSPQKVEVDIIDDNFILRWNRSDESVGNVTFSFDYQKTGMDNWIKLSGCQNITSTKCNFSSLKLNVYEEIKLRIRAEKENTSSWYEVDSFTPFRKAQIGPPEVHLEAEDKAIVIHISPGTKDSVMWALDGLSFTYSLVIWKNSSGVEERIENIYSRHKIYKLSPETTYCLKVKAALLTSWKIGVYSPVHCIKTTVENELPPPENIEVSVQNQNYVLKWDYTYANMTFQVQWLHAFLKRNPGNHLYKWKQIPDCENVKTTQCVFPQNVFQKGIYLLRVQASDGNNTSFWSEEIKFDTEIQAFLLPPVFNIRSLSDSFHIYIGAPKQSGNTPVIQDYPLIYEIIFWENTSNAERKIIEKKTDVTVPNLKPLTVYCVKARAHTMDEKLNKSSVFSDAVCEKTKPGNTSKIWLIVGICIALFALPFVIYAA
Put plainly: flow cytometry screening on HEK293T cells expressing human IFNAR1 extracellular domain-GFP. An excerpt:
Hybridoma secreting IFNAR1 antibody can be screened by analyzing GFP and PE signals of cells by flow cytometry. Monoclonal IgG antibodies of each well were screened by a reporter cell line stably expressing the extracellular domain of IFNAR1. Once extensive hybridoma growth occurs, hybridoma cells are usually screened after 10-14 days. Hybridoma cells secreting IFNAR1 antibody are subcloned by limited dilution method and were screened again. If still positive for human IFNAR1, then the monoclonal antibody is subcloned at least twice by limited dilution. Then the stable subclones are cultured in vitro, and a small amount of antibodies are produced in tissue culture medium for characterization.
The day before screening, 100 μL supernatant was aspirated from 96-well cell culture plate into a 96-well U bottom plate. 100 μL fresh 1×HAT RPMI medium was added to the original well for continued culture. HEK293T cells stably expressing IFNAR1 were harvested and were subsequently added to a 96-well U-bottom plate at a density of 10,000 cells/200 μL/well. After centrifugation at 2200 rpm for 3 min, the supernatant was discarded and the cell pellet was collected and re-suspended with 100 μL hybridoma supernatant at 4° C. for 30 min. […] Finally, the re-suspended cells were analyzed using a flow cytometer Guava (Millipore) for cellular GFP and PE signal. […]

B1: mouse anti-human IFNAR1 monoclonal antibody 10C9 (antibody, V domains shown)
VH: QIQLVQSGPELKKPGETVKISCKASGYTFTNYGVNWMKQAPGKGLKWMGWINTYTGEPTYADDFKGRFAFSLETSASTAYLQINNLKNEDTATYFCAREGVYYYGDWAWLAYWGQGTLVTVSA
VL: DIVMTQSQKFISTSVGDRVSVTCKASQNVGTNVAWYQQKPGQSPKTLIYSTSYRYNGVPDRFTGSGSGTDFTLTISNVQSEDLAEYFCQQYNSYYTFGGGTKLEIK
notes: Mouse monoclonal IgG from a hybridoma, detected with anti-mouse IgG; also called antibody secreted by hybridoma cell line 10C9 (CGMCC No. 12543)
Take B1: the binding result is reported as “no binding (tested: 5 µg/ml (methods of Example 2))” in test [1] and “binds” in test [2].

B2: mouse anti-human IFNAR1 monoclonal antibody 10C2 (antibody, V domains shown)
VH: QIQLVQSGPELKKPGETVKISCKASGYTFTNYGMNWVKQAPGKGLKWMGWINTYTGEPTYSDDFKGRFAFSLETSASTANLQINNLKDEDAATYFCAREGAIYYGDYVYFGVWGAGTTVTVSS
VL: DIVMTQSQKFMSTSVGDRVSITCKASQNVGTAVAWYQEKPGQSPKLLIYSASNRYTGVPDRFTGSGSGTAFTLTISNMQSEDLADYFCQQYYNYPLTFGAGTKLEVKR
notes: Mouse monoclonal IgG from a hybridoma, detected with anti-mouse IgG; also called antibody secreted by hybridoma cell line 10C2 (CGMCC No. 12542)
In the case of B2, the figures for the binding result in test [1] and in test [2] were “no binding (tested: 5 µg/ml (methods of Example 2))” and “binds”, respectively.
